Assay: label from the status in PepcDB records

| Sequence | protein production |
| --- | --- |
| MNFRTGQPSDAAALAAISIEVWLGTYMRKGVSAFFAEYALNEFTSTKMASLLKDPNEHVIVSENEGGIDAFIRLGQGRAAPVSGCSTLEIATLYVQPRHHRRGLGRALLEQGLAYARQASAPSVWLTTNSENAPAIAFYLEQGFEKVGTTHFNIGDQ | not failed |
| MAYLEVLRYLYHKRPMGKVKPGLERISMLLSKLGNPHLEYKTIHIGGTNGKGSVANMVSNILVSQGYRVGSYYSPHLSTFRERIRLNEEYISEEDVVKIYETMEPILNELDKEEIFSPSFFEVVTAMAFLYFAEKNVDIAVLEVGLGGRLDATNVVFPLCSTIVTVDRDHEKTLGYTIEQIAWEKSGIIKERVPLVTGERKREALKVMEDVARKKSSRMYVIDKDFSVKVKSLKLHENRFDYCGENTFEDLVLTMNGPHQIENAGVALKTLEATGLPLSEKAIREGLKNAKNLGRFEILEKNGKMYILDGAHNPHGAESLVRSLKLYFNGEPLSLVIGILDDKNREDILRKYTGIFERVIVTRVPSPRMKDMNSLVDMAKKFFKNVEVIEDPLEAIESTERATVVTGSLFLVGYVREFLTTGKINEEWKL | not failed |
| MAAFQIANKTVGKDAPVFIIAEAGINHDGKLDQAFALIDAAAEAGADAVKFQMFQADRMYQKDPGLYKTAAGKDVSIFSLVQSMEMPAEWILPLLDYCREKQVIFLSTVCDEGSADLLQSTSPSAFKIASYEINHLPLLKYVARLNRPMIFSTAGAEISDVHEAWRTIRAEGNNQIAIMHCVAKYPAPPEYSNLSVIPMLAAAFPEAVIGFSDHSEHPTEAPCAAVRLGAKLIEKHFTIDKNLPGADHSFALNPDELKEMVDGIRKTEAELKQGITKPVSEKLLGSSYKTTTAIEGEIRNFAYRGIFTTAPIQKGEAFSEDNIAVLRPGQKPQGLHPRFFELLTSGVRAVRDIPADTGIVWDDILLKDSPFHE | not failed |
| MNDFLFYLDIFGVIVFALSGALMAGRYQLDPFGVVVLASVTAVGGGTIRDVILQTPVFWVEKPYYLYVILATAILTIVLIRQPKRIPKRFLLIADALGLALFAVLGTQKALYLGAPIPVAVVLGTITGIAGGMIRDVLCNVIPMILREEIYALAAMLGGSLFIILHGLNWNDTNAMIVSISAALALRLAAIYWHVSLPAFHIVEKPKKEKGTTKIIEKK | failed |
| MFIHVGSDKVLVKFIVSKFIKDYSNISNKKVRENYGILSSIMGLIVNLILFVIELSIGIFINSIAVIADAFHNLADVSASVITLIGFKLSNKPADKEHPFGHGRVEYLSALLVSAIILLVGVEFIKTSFLRILSPEPVSFNLISFIIMLIAIPLKLWLSLFNKNIGKKINSSALKASGADALNDVYILSSVILSLLVSAFSTISIDGYVGVLIGALIIWSAVNLMKDTIDPLLGQAPDPNLVKSIKKMALKCDVILGVHDLIIHNYGPGRTMISFHAEVPYNIPIMTLHSKIDETEKRISEELDIFVVIHMDPLLIGSPEVSEAKRYVSKILKDFPSVQSFHDFRIVGDGEDKKLIFDIVVPFDVDISEKKLSKLGDDIKSEIIRRHPHYDCVITVDRDYSGI | failed |
| MNSAPFLIFGGILAWLFVYFLRLRRFYAGEFLLGLFIFGIAITIQSIIQKASLVWFNVHAKLLISLWLGFLAGFIQEGIKYIFVKGMTPYKGAMVGLGFGIAEVILLAVVATLAGSSNVPLYLLVASATERFFAVVFHVASTSLLASSNLRIFLGVFTVHGLVDTLASYSQLSRVLNTPKVFLIEAVFGVFALFLLLISLPRIRVEKEEGPKW | failed |
| MFGEQLLKNPLIEFCDSVCRGCGQVMFQNNTVTGLLFFAGIFYNSTTLGVCAVLGTAASTLTAQLLGVDKPLVRAGLFGFNGTLAGIALPFFFNYEPAMLGYVALNGAFTTIIMASLLNFLGKWGVPALTAPFVLATWLLMFGVYKLSLFHPGALIAPALPSVAGLADMGTVTGRTFMEGLFKGVGEVMFQDNIVTGVIFVVAILVNSRISALFAVIGSLVGLCTALIMHSPETPVRLGLYGFNSVLCGIAMGGIFFYLNIRTFLYALGCMVLGAIATGAFSVLLSPIGMPALTWPFIVVTWLFLFAGSMFRNIAQVPTEKAGTPEDNLRSLAIGSR | not failed |
| MSLYKLYSMQRSGNSYKVRLALALLDAPYRAVEVDILRGESRTPDFLAKNPSGQVPLLETAPGRYLAESNAILWYLAVGTSLAPDTRMDRAEALQWMFFEQHALEPNIGSAYFWLCLVKGGRDLQTHALEDWLERGYAALQVMENHLKTNDYFAAGQLTIADIALYGYTHVADQCDFDLSTFPAVNAWLRRVEQTPGFITMDWTPETIAADPTSFAAEGHHHHHH | not failed |
| MCSFFKKKLCIFFFILGNVVGWSSCVWGHLGSQYTIIGQSVISHSIDEIIQKQQQIIKILEQEIKNLQKDFANESANEYALAKVRLRARDINKRAIEAAFVLRNPLNDINVLLDQLKELQDEPKNLKERSHLIKKKAQINNMVLQFEEIFLATNKIVELSLSQSRELFKRTFKNRLEFSIPMLKYSVEKMKEASSDFLFLFSSWCKFVFHFKFLQLFLSFLVPLFVALGLSYFSRKVLAHVNCYFTKGNEEISYLQRLLVAFISILLPLLVCVVCVYLVFFLFHSFGMELGKLTTIFYTVGHQIILVFLINRLALVLLSLNMVHVRLFNITPFVAHQLVILLTFLGGILAFDAVLDSIYQVVSASLSLTIAKSFIAVFLFAILLFIISFVPLRFRRKSSQNEERETHFLPLYIRIPFIVLGLLLIVMDSLGYVGLAHFIMQQIVIGGAFLVLMYLGIKSAQVIGTKGQFMKTSVGHALMQWFHLEEKTMNKLGIVISVVLNLIVVILCAMPIAVQFGFSYSDLRRVLLQVMTGFQIGNISVSLISIVIGIIAFFACWFLNRRFICWLDGMVLVHGEFDSGVRNSIKTVISYAGVVVSALIGLSMAGLDLKNFALIAGGLSLGIGFGLQNIVQNFVSGLIILIGRPFKLGDYVEAGSVGGIVKRISVRATELETFQRKTIIIPNSSLINNNVSNWTRGSKMGRVDIPIVVSPNVAPERVVEILLEIASTTEGVLKNPAPQVSFTAFDSKKFSFSLAVYVPNITSSFKVTNALHFVLYKRFVQEGILEC | failed |
| MAGTTQGAKTLYDKLWDDHLVSQRDDGSCLIYIDRHLLHEVTSPQAFEGLQLAGRQPWRLNANIATPDHNVPTSKKEREQGIAGIEDDTSRIQVQTLDDNCKTFNIVEFGINDIRQGIVHVVGPEQGLTLPGMTVVCGDSHTATHGAFGCLAHGIGTSEVEHVLATQCLIQKKSKNMLIRVDGQLGKGVTPKDVVLAIIGKIGTAGGTGYAIEFGGQVFRDMSIEGRMTVCNMAIEAGARVGMVAVDDKTIEYVQSRHYAPKGEQWDQAVAYWNTLHSDDDAVFDEVVVLNGAEIEPQVSWGTSPEMVIPVSQAVPTLEQAKDDVQRNDWTRAYQYMGLTAGQALADIQLDRVFIGSCTNSRIEDIRAAAEVVKGRKVASSIKQAMIVPGSGLVKQQAEQEGLDQVFLEAGFEWREPGCSMCLAMNSDKLQPGEHCASTSNRNFEGRQGNGGRTHLVSPAMAAAAAIAGHFVDVRSF | failed |
| MLEKVEEWIKARGLTWRLLIMQKPTRTVAEAAALLGVSESEIVKTLIVLDNAGGVYAVVIPGDKRLNINSMKELAGKPVRLARANEVVELTGYPVGGVPPVALPPNIVLVVDRILLSRKKVYGGGGRENALLEFSPRELVEATGAVVADVSE | not failed |
| MNYILHLSILLVVAKLLEWLFEKKDIHPIIAHILTGIILGPFLLGIIYPNEELKVLSEFGLIMMMLYMGLTSNFSAIAQNKVKAIVVASLGVAFSFILGFTTVYLFGKGISAALFVGITLGNTAIEVTSGVIMKERIKREISSVLMGAAFADDIIAVYLIGILTGMIKGQTSLLSLAILTIKIVAFILSVLIFSEFVFKKSSLIYNLVIKDLNVFFTFTIILTFSLAVIAEGIGLNRIIGAYLAGLTISRLRERKDPLIISRIKLNELINELQVVLTEFFIPLFFIYVGLMFDPDTSEINLLLIALLYASAILGKLIGCGLGVKVFKGSWKDAVIVGIGMGGRGSLDLALLKFGLESGMIGEDLFATTVIVSMLTALSTPIFFRKTVKKLSEE | failed |
| MGKGGDIVVGNGKKYAAPLLVLGCVVFGLGSLIVRSVPVGSYAIAFWRLLISVFVFWFLARFFRQKFPKNRKTVRYALTAGVFLAFDLALWHESIHAVGPGISTLLNSLQIFFLSAIGVFFFGERLSGLKKAGLISAVAGVAMIAGAEFGYNGNAVWGFASGLVSGLMLALSMVFVRKTHEIEPVALFPSMMILSLGGAVSLVVPALLMDGGALYPTTWKDAGLVLVYGVVMQCFAWAMVAYAIPLLSLSLTGLLLLSEPVAALFIDYFGLGKPIEGVQWAGVALTLSAIYLGSLKRQSSH | failed |
| MLDATTRSGGTATATPRATATDLTVATAAAAAGVTAPGAAVAVPTGFTARCTRVLLSPWSRLSLLVALLAAAASSVLLFEPQKLLAHGWPPQLGGAAAAVVFAVAYGLCTVAFVPRPLLNLAAGALFGSQWGTGTALAGTVLGAGVAFGLGRMLGQDALRPLLRGRWLKAVDGQLSRHAFRSMMAARLFPGVPFWAANYCAAVSRMRWVPFLVATALGSIPNTAAYAVAGARASRPTSPAFLIAMGFIAVPALVGAVVAWRKRHHLRGN | failed |
| MQKALFNLVLRGLEKQVPATGLGLFRLAFGLVAFQEICFLYYFRQLIFDPVPYLDIASPSVHLFLVLWAIAALCLALGLYTRLAAIANYLFWLVFTVFTPMWKDFDGGFDQLMLGSSLLLIFLPSERAWSLDRLRLAWRHSTVDRCYALPRTVPVLCYFLPLAVSLGFIYFDSVIHKLFAEFWRNGLGPWLPSSLPYYMSPLDMGWLLEIEPLQRAIGYTIIAFQFAFLFLLYFRRFRVPLMLVGLSLHAGIIVSLNIYPFGFGMLVHYFLMVPFRWWRTLGRTLRPAEPALQVFYDERCPLCLKTVLAIEHFDVFRAVEFRGLQTHAATAPALEDIPERDLLGDLYAVDREGRRYSGVATYARILVAMRYPALAGLAMRLPGLATIADRVYRRIADNRVRLGCDASCAPAPGRTEPDLAQRIGRWVGGSLQQRANRISRMLVVVLILQLNCTLHYAILYRLGVDTKANEAGQVLTMLSNALISASHTFLGITPHPLYLHDHFQGYEHILGIVHLDADGKERWLPFVDEEGRIVSPNWGRVHSMWANVAVTRHMDPRRLDKFVRKVTAFWGTRLGLDLNRTTFVLKLKTVKAPMDWEPGLRRYNLAQPWEDVGRAVWRDGEMRLELDRDLEALSAD | failed |
| MYFSATLFNKYYKLLGTNDEGKLNLERTSSLAYFLALDQMQKDEEEPNAVINMYKDSLSRKNFMEKVGEIFVIAKNGSFEYQANILGCINKVEGGGNSMSSKTGKNFLSTQVISASSSPNPVGYPKRPAASFILELGFEIEGHKHGIKKSDSWKNNLMKFIEFRKCGTDTFPLIVFLLRDKQLNNNLDFNNAIREGLGSAYTQAVVDYLIVNAQVPSLVWDDLQNFATAPFTIDELDTELFMQDQPETNNLQPTVQVKEFKEIEIPNDISRNRIVYGAPGTGKSYKLNKDAKEFFPDDDLYIRVTLYPNYSYSQFVGTYKPTPIYKDVEGEFYKSDMVTSIGHGKEPLIDYTFVPGPFLIQLVNALKYPKSNFVIIIEEINRANAAAVFGDVFQLLDRKDDGESEYTITFNADVTNYLRKEGIFDLQIKIPKNLYIWATMNSADQGVTPLDTAFKRRWSFEYMPIDAGEGAVSSLEMELKFLENPILWNKFRKILNQKLKELMVPEDKLIGPFFMKSYELSNPESFKNKLLLYLRDDVLRHNATKFFKHQTFSDIVTAYDQGGNIFRTISKEELVRSE | not failed |
| MIIDDIINKIKSSNKIAISFHISPDGDSIGSSLGLLNGLRSIGKETYILSKEVVPESFEFLNFAREIDGNHFEVEDNTDLLITLDCGNIERLNFDTSDMISEDKKYTVINIDHHVTNDSFGDLNYINTKAASVGEIVYDLLSKMNISIDRTIAACLYTSILTDTGSFRFSNTTLNTHVVAGNLISTGLDFSEIHRKIFDNKKFEALKLQALVLNDMYLTFNNKLCVMKVTHDFIEKANAEDVDTGDLVSLGLKVNTAEVCMLLKEKDDCIKVSLRSKSYVDVRKIAEKFGGGGHIRAAGLSINSNILDAEKMILSEIQGELLEHHHHHH | failed |

Source: a protein production outcome set (Wang et al. 2014)
